Data published in US20210238260.
Positions count from the first letter of the chain named. In names and notes the source's numbering stands.

B1: FIXa-K247N/N249S/R338E/T343R/R403E/E410N (protein)
chain 1: YNSGKLEEFVQGNLERECMEEKCSFEEAREVFENTERTTEFWKQYVDGDQCESNPCLNGGSCKDDINSYECWCPFGFEGKNCELDVTCNIKNGRCEQFCKNSADNKVVCSCTEGYRLAENQKSCEPAVPFPCGRVSVSQTSKLTR
chain 2: VVGGEDAKPGQFPWQVVLNGKVDAFCGGSIVNEKWIVTAAHCVETGVKITVVAGEHNIEETEHTEQNRSVIRIIPHHNYNAAINKYNHDIALLELDEPLVLNSYVTPICIADKEYTNIFLKFGSGYVSGWGRVFHKGRSALVLQYLRVPLVDRATCLESTKFRIYNNMFCAGFHEGGRDSCQGDSGGPHVTEVEGTSFLTGIISWGEECAMKGKYGIYTKVSEYVNWIKNKTKLT
B2: FIXa-Y155F/R338E/T343R/E410N (protein)
chain 1: B1 chain 1
chain 2: B1 chain 2 with N67K, S69N, E223R
B3: FIXa-Y155F/K247N/N249S/R318Y/T343R (protein)
chain 1: B1 chain 1
chain 2: B1 chain 2 with R138Y, E158R, E223R, N230E
B4: FIXa-Y155F/R318Y/T343R/R403E (protein)
chain 1: B1 chain 1
chain 2: B1 chain 2 with N67K, S69N, R138Y, E158R, N230E
B5: FIXa-Y155F/K247N/N249S/R318Y/R338E/T343R (protein)
chain 1: B1 chain 1
chain 2: B1 chain 2 with R138Y, E223R, N230E
B6: FIXa-Y155F/T343R/R403E/E410N (protein)
chain 1: B1 chain 1
chain 2: B1 chain 2 with N67K, S69N, E158R
B7: FIXa-Y155F/K247N/N249S/R318Y/R338E (protein)
chain 1: B1 chain 1
chain 2: B1 chain 2 with R138Y, R163T, E223R, N230E
B8: FIXa-K247N/N249S/T343R/R403E/E410N (protein)
chain 1: B1 chain 1
chain 2: B1 chain 2 with E158R
B9: FIXa-Y155F/K247N/N249S/R318Y/R338E/T343R/E410N (protein)
chain 1: B1 chain 1
chain 2: B1 chain 2 with R138Y, E223R
B10: FIXa-Y155F/K247N/N249S/R318Y/E410N (protein)
chain 1: B1 chain 1
chain 2: B1 chain 2 with R138Y, E158R, R163T, E223R
B11: FIXa-Y155F/K247N/N249S/R318Y/R403E (protein)
chain 1: B1 chain 1
chain 2: B1 chain 2 with R138Y, E158R, R163T, N230E
B12: FIXa-Y155F/K247N/N249S/R338E/R403E (protein)
chain 1: B1 chain 1
chain 2: B1 chain 2 with R163T, N230E
B13: FIXa-R318Y/R338E/T343R (protein)
chain 1: B1 chain 1
chain 2: B1 chain 2 with N67K, S69N, R138Y, E223R, N230E
B14: FIXa-Y155F/K247N/N249S/R338E/T343R (protein)
chain 1: B1 chain 1
chain 2: B1 chain 2 with E223R, N230E
B15: FIXa-Y155F/R318Y/R338E/T343R (protein)
chain 1: B1 chain 1
chain 2: B1 chain 2 with N67K, S69N, R138Y, E223R, N230E
B16: FIXa-Y155F/K247N/N249S/T343R/E410N (protein)
chain 1: B1 chain 1
chain 2: B1 chain 2 with E158R, E223R
B17: FIXa-Y155F/R318Y/T343R/E410N (protein)
chain 1: B1 chain 1
chain 2: B1 chain 2 with N67K, S69N, R138Y, E158R, E223R
B18: FIXa-Y155F/K247N/N249S/R403E/E410N (protein)
chain 1: B1 chain 1
chain 2: B1 chain 2 with E158R, R163T
B19: FIXa-K247N/N249S/R318Y/R338E/T343R (protein)
chain 1: B1 chain 1
chain 2: B1 chain 2 with R138Y, E223R, N230E
B20: FIXa-Y155F/K247N/N249S/R318Y/R338E/R403E (protein)
chain 1: B1 chain 1
chain 2: B1 chain 2 with R138Y, R163T, N230E

Tests used:
[1] = molecular target: Factor X, P00742
[2] = molecular target: Factor X (FX), P00742
Sequence of Factor X (FX), P00742 (P00742 whole entry, looked up): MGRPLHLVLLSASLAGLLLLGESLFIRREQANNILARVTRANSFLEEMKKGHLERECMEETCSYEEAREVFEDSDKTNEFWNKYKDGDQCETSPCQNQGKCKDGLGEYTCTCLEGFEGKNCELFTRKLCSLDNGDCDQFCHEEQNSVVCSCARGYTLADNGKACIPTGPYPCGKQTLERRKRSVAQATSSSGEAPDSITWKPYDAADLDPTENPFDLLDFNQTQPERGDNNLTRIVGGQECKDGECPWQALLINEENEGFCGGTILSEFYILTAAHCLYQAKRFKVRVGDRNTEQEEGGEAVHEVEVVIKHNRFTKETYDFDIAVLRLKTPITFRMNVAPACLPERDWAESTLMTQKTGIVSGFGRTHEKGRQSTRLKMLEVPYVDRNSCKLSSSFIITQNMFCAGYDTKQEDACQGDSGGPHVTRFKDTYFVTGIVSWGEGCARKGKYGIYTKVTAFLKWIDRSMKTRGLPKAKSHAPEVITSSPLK

Sequence of Factor X, P00742 (P00742 whole entry, looked up): as above

Protein | kcat [1] [s⁻¹] | % of WT kcat/KM [2] [%] | KM [2] [µM] | kcat/KM for FX activation (Xase: FVIIIa, PC/PS vesicles, Ca2+) [2] [M⁻¹ s⁻¹] | KM [1] [µM] | kcat (s^-1) of FX activation by FIXa variant in the Xase complex (FVIIIa, PC/PS vesicles, Ca2+), fluorogenic FXa read-out [2] [s⁻¹] | proteolytic cleavage and activation of purified factor X [2] | % of WT kcat/KM [1] [%] | kcat/KM [1] [M⁻¹ s⁻¹] | kcat of FX activation by FIXa (Xase complex with FVIIIa, PC/PS vesicles, Ca2+) [2] [s⁻¹]
B1 | 10.8 | 930 | 0.0251 | 4.3e+08 |  |  |  |  |  | 
B2 |  | 761 |  | 3.5e+08 | 0.0224 | 6 |  |  |  | 
B3 | 10.3 | 549 | 0.0421 | 2.5e+08 |  |  |  |  |  | 
B4 |  | 154 |  | 7.1e+07 | 0.0727 | 5 |  |  |  | 
B5 |  | 772 |  | 3.6e+08 | 0.0276 | 8.5 |  |  |  | 
B6 |  | 321 |  | 1.5e+08 | 0.0446 | 6.6 |  |  |  | 
B7 | 7.5 | 632 | 0.0263 | 2.9e+08 |  |  |  |  |  | 
B8 |  | 285 |  | 1.3e+08 | 0.06 | 8 |  |  |  | 
B9 | 7.7 | 1091 | 0.0177 | 5e+08 |  |  |  |  |  | 
B10 | 3.4 | 155 | 0.0488 | 7.2e+07 |  |  |  |  |  | 
B11 | 1.7 | 34 | 0.109 | 1.6e+07 |  |  |  |  |  | 
B12 | 5.3 | 299 | 0.0409 | 1.4e+08 |  |  |  |  |  | 
B13 |  | 324 |  | 1.5e+08 | 0.03 | 4.5 | catalyzes the proteolytic cleavage and activation of purified factor X to the same extent in the presence of (1) poly-L-lysine phospholipid/calcium, and (3) factor VIIIa/phospholipid/calcium |  |  | 
B14 | 10.6 | 1579 | 0.0153 | 7.3e+08 |  |  |  |  |  | 
B15 |  | 771 |  | 3.6e+08 | 0.0242 | 7.9 |  |  |  | 
B16 |  | 599 |  | 2.8e+08 | 0.0344 | 7.9 |  |  |  | 
B17 |  | 326 |  | 1.5e+08 | 0.0403 | 5 |  |  |  | 
B18 |  | 53 |  | 2.4e+07 | 0.131 | 2.7 |  |  |  | 
B19 |  | 840 |  | 3.9e+08 | 0.0244 | 8 |  |  |  | 
B20 |  |  |  |  |  |  |  | 206 | 9.5e+07 | 5.7
